The values that follow come from paper PMC2791216, “Phosphorylation of S776 and 14-3-3 Binding Modulate Ataxin-1 Interaction with Splicing Factors” (PLoS ONE, 2009).

Square brackets hold non-standard residues; d marks the D form. Ends that are not written are not given here. Peptide text beside a SMILES is read from it. pS = N[C@@H](COP(=O)(O)O)C(=O)O

For one assay, the target named is U2AF65 UHM, 369-475 (UniProt P26368). Briefly: NMR 15N-HSQC titration. The conditions noted are these: reference: unphosphorylated Atx1 ULM peptide; sites S776.
U2AF65 UHM, 369-475, sequence (P26368 whole entry, looked up, tested part not stated, one chain of several): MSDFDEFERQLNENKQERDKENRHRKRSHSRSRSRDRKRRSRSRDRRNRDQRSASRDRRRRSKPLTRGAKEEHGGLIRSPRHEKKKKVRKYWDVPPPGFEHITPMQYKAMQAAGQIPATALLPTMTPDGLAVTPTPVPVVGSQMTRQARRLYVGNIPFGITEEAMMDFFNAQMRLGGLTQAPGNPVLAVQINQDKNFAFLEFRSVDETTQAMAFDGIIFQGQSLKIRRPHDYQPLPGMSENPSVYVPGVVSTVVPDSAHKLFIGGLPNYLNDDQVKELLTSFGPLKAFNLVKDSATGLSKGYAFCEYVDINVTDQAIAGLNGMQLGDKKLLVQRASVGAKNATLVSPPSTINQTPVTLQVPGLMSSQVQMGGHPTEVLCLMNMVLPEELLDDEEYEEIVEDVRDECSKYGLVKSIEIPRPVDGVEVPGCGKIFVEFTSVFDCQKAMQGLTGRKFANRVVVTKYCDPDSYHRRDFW
For assay [1], the target named is T1, 14-3-3ζ (Homo sapiens, UniProt P63104).
T1 sequence (P63104 1-245): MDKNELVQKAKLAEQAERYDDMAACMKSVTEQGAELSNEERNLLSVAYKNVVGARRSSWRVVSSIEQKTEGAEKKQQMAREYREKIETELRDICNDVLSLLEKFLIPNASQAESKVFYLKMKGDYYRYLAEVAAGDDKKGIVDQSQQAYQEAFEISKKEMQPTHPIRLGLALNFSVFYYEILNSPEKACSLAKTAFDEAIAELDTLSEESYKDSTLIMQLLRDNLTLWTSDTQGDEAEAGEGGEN
Briefly: ITC binding of Atx1 ULM peptides to 14-3-3ζ. The conditions noted are these: 50 mM sodium phosphate buffer (pH 7.0), 150 mM NaCl, 5 mM DTT, 295 K, average of three measurements, n.b. = binding not detectable. The text has this:
Since S776 phosphorylated Atx1 binds also the 14-3-3 protein [17], we compared the affinity of this interaction. We used a peptide C-terminally extended as compared to the one previously designed to probe interaction with U2AF65 UHM so to include P778 and encompass the complete 14-3-3 ‘mode II’ recognition motif (Atx1_pS_ULM_PE, residues 769–779). We compared the affinities of this peptide with the non-phosphorylated version (Atx1_S_ULM_PE) and with the shorter Atx1_pS_ULM peptide. […] We chose to work with isoform ζ (14-3-3ζ) since it is present in high concentrations in the neuronal nucleus of all the major affected areas in SCA1 brains.
All the proteins were dialyzed against 50 mM sodium phosphate buffer (pH 7.0), 150 mM NaCl and 5 mM DTT. Solutions of 0.025–0.4 mM UHM proteins in the cell were titrated by injections of a total of 295 µl of 0.25–3.9 mM peptide in the syringe in 21 aliquots. The concentrations of the 14-3-3ζ and ATX1 ULM ligands were adjusted to 0.012–0.037 mM and 0.1–0.4 mM respectively. Data were processed with the software MicroCal Origin version 5.0 provided by the manufacturer. All dissociation constants were averages of three measurements.

In assay [2] the target is T2, SPF45 UHM (residues 301–401) (UniProt Q96I25 301-401).
T2 construct: SPF45, also known as RBM17, UHM domain, residues 301-401; The His6-GST tags (vector pETM30) are TEV-cleavable; also called RBM17 UHM; source: E. coli BL21 (DE3)pLysS, purified (Ni-NTA, SEC)
T2 sequence (looked up): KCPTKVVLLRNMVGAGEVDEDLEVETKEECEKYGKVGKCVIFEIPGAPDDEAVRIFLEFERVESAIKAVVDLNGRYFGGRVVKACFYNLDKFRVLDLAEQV
Briefly: ITC; 50 mM sodium phosphate buffer (pH 7.0), 150 mM NaCl, 5 mM DTT; 295 K; protein in the cell, peptide in the syringe; single-site model; averages of three measurements. The following applies: both partners purified. Background: In ITC the heat of successive injections is recorded.

Assay [3] addresses T3, U2AF65 UHM (residues 369–475) (UniProt P26368 369-475).
T3 construct: U2AF65 (splicing factor U2AF 65 kDa subunit), UHM domain, residues 369-475; The His6-GST tags (vector pETM30) are TEV-cleavable; 15N-labelled for the NMR experiments, unlabelled for ITC; also called U2AF65 UHM domain; source: E. coli BL21 (DE3)pLysS, purified (Ni-NTA, SEC)
The description is as above. The conditions noted are these: both partners purified.

Assay [4] concerns the target T3, U2AF65 UHM (residues 369–475). Kind of assay: ITC; 20 mM sodium phosphate buffer (pH 6.4), 30 mM NaCl, 5 mM DTT; 295 K; protein in the cell, peptide in the syringe. The following applies: both partners purified.
In assay [5] the target is T4, 14-3-3ζ (UniProt P63104 1-245).
T4 construct: 14-3-3 protein, isoform zeta; also called 14-3-3 isoform ζ
T4 sequence (looked up): T1 sequence (P63104 1-245)
Briefly: ITC; 50 mM sodium phosphate buffer (pH 7.0), 150 mM NaCl, 5 mM DTT; 295 K; protein in the cell, peptide in the syringe; single-site model; averages of three measurements. The following applies: both partners purified.

T3 sequence (P26368 369-475, one chain of several): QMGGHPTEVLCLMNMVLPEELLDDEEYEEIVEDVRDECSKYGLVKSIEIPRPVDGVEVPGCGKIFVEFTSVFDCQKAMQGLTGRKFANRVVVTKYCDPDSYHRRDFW

In the case of “Ataxin-1 (Atx1) 769-777 (from UniProt P54253) pS776 Atx1 ULM peptide”, the “binding against the reference” value with U2AF65 UHM, 369-475 is “same”. For ATRKRRWDAPE [Atx1_D_ULM_PE], at 14-3-3ζ [1], the “Kd, 14-3-3ζ (ITC)” value is listed as “n.b”. In the case of ATRKRRWAAPE [Atx1_A_ULM_PE], the “Kd, 14-3-3ζ (ITC)” value on 14-3-3ζ [1] was “n.b”.

What is called Kd is the concentration at which binding is half-saturated. A high value points to weaker binding. With `C[C@H](N)C(=O)N[C@H](C(=O)N[C@@H](CCCNC(=N)N)C(=O)N[C@@H](CCCCN)C(=O)N[C@@H](CCCNC(=N)N)C(=O)N[C@@H](CCCNC(=N)N)C(=O)N[C@@H](Cc1c[nH]c2ccccc12)C(=O)N[C@@H](COP(=O)(O)O)C(=O)N[C@@H](C)C(=O)N1CCC[C@H]1C(=O)N[C@@H](CCC(=O)O)C(=O)O)[C@@H](C)O` [Atx1_pS_ULM_PE] (H-ATRKRRW[pS]APE-OH), at 14-3-3ζ [1], the Kd is 0.4 ± 0.03 µM. Take ATRKRRWSAPE [Atx1_S_ULM_PE]: the “Kd, 14-3-3ζ (ITC)” value at 14-3-3ζ [1] was “n.b. ^c”.

B1: Atx1_S_ULM_PE (peptide)
peptide: ATRKRRWSAPE
notes: Ataxin-1 (Atx1), residues 769-779; source: synthetic peptide; bought: Pepceuticals Limited
For B1, the Kd is 23.4 ± 1.5 µM in assay [2] and 9.2 ± 0.3 µM in assay [3].

B2: Atx1_D_ULM_PE (peptide)
peptide: ATRKRRWDAPE
notes: also called S776D peptide; S776D mutant peptide; source: synthetic peptide; bought: Pepceuticals Limited
Regarding B2, the Kd in assay [2] amounted to 0.9 ± 0.07 µM; in assay [3], 6.4 ± 0.7 µM.

B3: Atx1_A_ULM_PE (peptide)
peptide: ATRKRRWAAPE
notes: also called S776A-mutated peptide; S776A mutant peptide; source: synthetic peptide; bought: Pepceuticals Limited
Take B3: the Kd is 22.5 ± 0.6 µM in assay [2] and 8.9 ± 0.4 µM in assay [3].

B4: Atx1_pS_ULM (peptide)
peptide: ATRKRRW[pS]A
notes: Ataxin-1 (Atx1), residues 769-777, S776 phosphorylated; also called phosphorylated Atx1 ULM; source: synthetic peptide; bought: Pepceuticals Limited
B4: the Kd in assay [4] turned out to be 0.6 ± 0.08 µM; with 14-3-3ζ [5], 1 ± 0.1 µM; in assay [3], 18.4 ± 0.7 µM.

B5: Atx1_pS_ULM_PE (peptide)
peptide: ATRKRRW[pS]APE
notes: Ataxin-1 (Atx1), residues 769-779, S776 phosphorylated; source: synthetic peptide; bought: Pepceuticals Limited
Consider B5, for which the dissociation constant (Kd) in assay [2] was 40 ± 1.6 µM; in assay [3], 35.8 ± 1.3 µM.
